Assay results as given in US20160136234A1.

How the values were obtained:
Experiment in all cases: cell-based or functional assay
PKG1α (h) (human) = PKG1α (h) (human) (UniProt Q13976)
CDK1/cyclinB (h) (human) = CDK1/cyclinB (h) (human) (UniProt P06493)
MSK2 (h) (human) = MSK2 (h) (human) (UniProt O75676)
IKKβ (h) (human) = target: T1, IKKβ (h) (human) (UniProt O14920)
T1 sequence (looked up): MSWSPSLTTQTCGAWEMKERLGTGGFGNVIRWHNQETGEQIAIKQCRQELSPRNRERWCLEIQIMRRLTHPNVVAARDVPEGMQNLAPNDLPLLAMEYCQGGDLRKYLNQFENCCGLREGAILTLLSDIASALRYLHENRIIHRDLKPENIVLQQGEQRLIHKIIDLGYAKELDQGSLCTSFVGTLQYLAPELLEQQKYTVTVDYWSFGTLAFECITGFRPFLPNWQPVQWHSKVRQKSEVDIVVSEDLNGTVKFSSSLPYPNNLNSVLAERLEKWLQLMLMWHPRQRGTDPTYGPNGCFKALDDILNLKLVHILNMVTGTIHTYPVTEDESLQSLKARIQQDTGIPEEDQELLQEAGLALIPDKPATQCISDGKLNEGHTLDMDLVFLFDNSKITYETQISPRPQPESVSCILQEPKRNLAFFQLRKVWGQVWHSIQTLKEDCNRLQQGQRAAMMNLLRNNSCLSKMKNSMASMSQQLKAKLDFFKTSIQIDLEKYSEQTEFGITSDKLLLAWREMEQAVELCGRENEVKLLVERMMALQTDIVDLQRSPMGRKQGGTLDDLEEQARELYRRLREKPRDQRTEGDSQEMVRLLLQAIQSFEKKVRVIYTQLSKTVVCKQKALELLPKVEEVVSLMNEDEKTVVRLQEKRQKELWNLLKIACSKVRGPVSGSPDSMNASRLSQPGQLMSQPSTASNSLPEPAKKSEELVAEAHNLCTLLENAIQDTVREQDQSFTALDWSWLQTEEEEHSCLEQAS

Ret(V804M) (h) (human) = target: T2, Ret(V804M) (h) (human) (UniProt P07949)
T2 sequence (looked up): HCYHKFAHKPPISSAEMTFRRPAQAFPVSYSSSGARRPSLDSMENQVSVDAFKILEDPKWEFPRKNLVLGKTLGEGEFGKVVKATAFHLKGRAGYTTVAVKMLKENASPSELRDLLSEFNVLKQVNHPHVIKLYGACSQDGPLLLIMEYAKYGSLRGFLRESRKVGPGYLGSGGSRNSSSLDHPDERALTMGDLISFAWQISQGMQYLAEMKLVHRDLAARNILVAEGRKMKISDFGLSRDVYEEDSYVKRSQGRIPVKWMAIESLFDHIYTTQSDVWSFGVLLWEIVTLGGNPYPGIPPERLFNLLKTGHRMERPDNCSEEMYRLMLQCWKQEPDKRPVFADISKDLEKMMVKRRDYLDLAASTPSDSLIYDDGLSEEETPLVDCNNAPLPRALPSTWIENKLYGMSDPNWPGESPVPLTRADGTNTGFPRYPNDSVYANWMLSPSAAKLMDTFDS

mTOR (h) (human) = mTOR (h) (human) (UniProt P42345)
STK33 (h) (human) = STK33 (h) (human) (UniProt Q9BYT3)
SAPK3 (h) (human) = target: T3, SAPK3 (h) (human) (UniProt P53778)
T3 sequence (looked up): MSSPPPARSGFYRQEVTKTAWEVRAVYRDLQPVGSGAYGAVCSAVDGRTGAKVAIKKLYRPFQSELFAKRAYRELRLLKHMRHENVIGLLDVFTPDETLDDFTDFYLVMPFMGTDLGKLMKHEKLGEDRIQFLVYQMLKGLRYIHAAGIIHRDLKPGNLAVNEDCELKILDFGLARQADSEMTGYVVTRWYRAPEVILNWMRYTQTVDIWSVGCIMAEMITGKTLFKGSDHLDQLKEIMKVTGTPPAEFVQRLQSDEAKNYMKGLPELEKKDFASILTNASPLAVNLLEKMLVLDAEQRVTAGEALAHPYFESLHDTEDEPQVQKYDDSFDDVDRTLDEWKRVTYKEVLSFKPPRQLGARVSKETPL

EphA8 (h) (human) = target: T4, EphA8 (h) (human) (UniProt P29322)
T4 sequence (looked up): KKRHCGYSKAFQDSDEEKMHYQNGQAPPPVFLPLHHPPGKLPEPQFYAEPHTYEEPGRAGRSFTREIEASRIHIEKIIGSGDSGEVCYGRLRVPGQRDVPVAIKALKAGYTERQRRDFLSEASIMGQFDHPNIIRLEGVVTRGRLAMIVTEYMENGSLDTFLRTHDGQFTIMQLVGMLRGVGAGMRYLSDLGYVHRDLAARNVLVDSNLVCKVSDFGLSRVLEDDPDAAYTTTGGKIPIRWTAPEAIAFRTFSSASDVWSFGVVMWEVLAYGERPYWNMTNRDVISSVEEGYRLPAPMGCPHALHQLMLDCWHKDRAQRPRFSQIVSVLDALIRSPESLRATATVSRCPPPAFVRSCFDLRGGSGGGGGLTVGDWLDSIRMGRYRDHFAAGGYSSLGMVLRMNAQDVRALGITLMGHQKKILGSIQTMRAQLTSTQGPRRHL

PKCζ (h) (human) = target: T5, PKCζ (h) (human) (UniProt Q05513)
T5 sequence (looked up): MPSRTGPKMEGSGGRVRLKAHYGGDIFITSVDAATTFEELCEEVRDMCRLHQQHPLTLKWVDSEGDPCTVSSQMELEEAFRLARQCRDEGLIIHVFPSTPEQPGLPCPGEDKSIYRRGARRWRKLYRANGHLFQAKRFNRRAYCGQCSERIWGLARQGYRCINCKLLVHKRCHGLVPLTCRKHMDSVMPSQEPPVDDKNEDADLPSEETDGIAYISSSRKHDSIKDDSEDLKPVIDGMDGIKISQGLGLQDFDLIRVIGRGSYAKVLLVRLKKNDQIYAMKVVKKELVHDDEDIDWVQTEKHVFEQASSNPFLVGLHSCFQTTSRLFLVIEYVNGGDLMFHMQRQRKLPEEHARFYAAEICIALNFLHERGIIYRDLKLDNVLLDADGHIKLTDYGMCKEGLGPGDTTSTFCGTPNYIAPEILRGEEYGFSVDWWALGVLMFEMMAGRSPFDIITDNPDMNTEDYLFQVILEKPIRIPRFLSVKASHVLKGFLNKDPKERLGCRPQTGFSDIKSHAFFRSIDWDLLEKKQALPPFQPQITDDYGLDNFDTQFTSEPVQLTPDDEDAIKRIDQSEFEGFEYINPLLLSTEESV

Sequence of mTOR (h) (human) (P42345 1362-2549 limits assumed): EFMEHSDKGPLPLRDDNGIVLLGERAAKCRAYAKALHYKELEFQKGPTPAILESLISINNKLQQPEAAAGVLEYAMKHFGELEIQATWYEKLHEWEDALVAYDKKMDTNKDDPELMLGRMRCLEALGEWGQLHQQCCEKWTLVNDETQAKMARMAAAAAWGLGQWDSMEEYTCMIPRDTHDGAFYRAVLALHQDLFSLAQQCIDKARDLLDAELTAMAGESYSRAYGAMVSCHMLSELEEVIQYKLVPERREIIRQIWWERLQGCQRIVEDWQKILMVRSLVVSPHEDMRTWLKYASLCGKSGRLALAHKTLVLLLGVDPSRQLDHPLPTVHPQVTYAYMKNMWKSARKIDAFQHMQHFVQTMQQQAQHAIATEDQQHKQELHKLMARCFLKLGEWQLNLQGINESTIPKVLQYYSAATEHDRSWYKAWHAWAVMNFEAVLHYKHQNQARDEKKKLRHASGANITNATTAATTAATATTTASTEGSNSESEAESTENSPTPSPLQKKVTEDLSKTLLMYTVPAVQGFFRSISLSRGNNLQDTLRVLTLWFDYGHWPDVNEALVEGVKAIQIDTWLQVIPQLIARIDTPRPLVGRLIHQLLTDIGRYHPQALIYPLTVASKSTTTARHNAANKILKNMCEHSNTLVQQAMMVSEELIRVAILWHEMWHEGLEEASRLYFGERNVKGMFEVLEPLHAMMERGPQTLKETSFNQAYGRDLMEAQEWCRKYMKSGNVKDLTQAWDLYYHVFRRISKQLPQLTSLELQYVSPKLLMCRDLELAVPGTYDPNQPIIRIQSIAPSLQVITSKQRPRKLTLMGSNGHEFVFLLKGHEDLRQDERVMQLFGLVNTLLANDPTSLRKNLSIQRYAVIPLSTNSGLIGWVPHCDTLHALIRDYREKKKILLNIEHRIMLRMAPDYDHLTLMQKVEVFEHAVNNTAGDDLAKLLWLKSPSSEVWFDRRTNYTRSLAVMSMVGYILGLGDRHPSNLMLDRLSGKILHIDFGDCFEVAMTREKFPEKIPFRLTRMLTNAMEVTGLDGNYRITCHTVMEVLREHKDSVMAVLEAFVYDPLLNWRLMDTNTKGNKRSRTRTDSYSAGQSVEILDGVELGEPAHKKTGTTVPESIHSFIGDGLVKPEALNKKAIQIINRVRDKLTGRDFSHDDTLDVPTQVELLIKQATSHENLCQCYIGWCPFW

% activity at 100 µM (PKG1α (h) (human)): 64%
% activity at 100 µM (CDK1/cyclinB (h) (human)): 73%
% activity at 100 µM (MSK2 (h) (human)): 56%
% activity at 100 µM (IKKβ (h) (human)): 84%
% activity at 100 µM (Ret(V804M) (h) (human)): 95%
% activity at 100 µM (mTOR (h) (human)): 91%
% activity at 100 µM (STK33 (h) (human)): 45%
% activity at 100 µM (SAPK3 (h) (human)): 84%
% activity at 100 µM (EphA8 (h) (human)): 93%
% activity at 100 µM (PKCζ (h) (human)): 81%
Substance: MMI-0300 (peptide)
